The values that follow come from the Immune Epitope Database (IEDB).

Common to all, as to assay: IEDB peptide-MHC binding, purified MHC/competitive/fluorescence; filed as Kd, often an IC50 or EC50 that approximates it; ≥ and ≤ were set here for values at or beyond the usual limits of such assays
What all share (settings): source organism: Rickettsia akari str. Hartford

Experiment [1] has as its target HLA-A*23:01.
Experiment [2] concerns the target HLA-B*46:01.
For experiment [3], the target named is HLA-B*15:17.
Experiment [4] concerns the target HLA-A*24:03.
For experiment [5], the target named is HLA-B*58:01.
Experiment [6] concerns the target HLA-B*18:01.
The target of experiment [7] is HLA-A*02:01.
Experiment [8] deals with HLA-B*39:01.
In experiment [9] the target is HLA-A*29:02.
The target in experiment [10] is HLA-B*51:01.
Experiment [11] concerns the target HLA-A*68:02.
Experiment [12] addresses HLA-A*02:19.
The target of experiment [13] is HLA-A*03:01.
The target in experiment [14] is HLA-A*02:16.
Experiment [15] concerns the target HLA-A*02:03.
The target of experiment [16] is HLA-A*01:01.
In experiment [17] the target is HLA-A*02:12.
Experiment [18] addresses HLA-B*57:01.
Experiment [19] concerns the target HLA-A*69:01.
Experiment [20] concerns the target HLA-A*26:01.
Experiment [21] has as its target HLA-A*66:01.
Experiment [22] concerns the target HLA-B*53:01.
Experiment [23] deals with HLA-B*08:01.
In experiment [24] the target is HLA-A*11:01.

Some results are limits rather than exact numbers.

As for FTARIIIFS, the Kd (as a rule, the equilibrium constant for the complex coming apart) is at least 20 µM in [1]; at least 20 µM in experiment [2]; at least 20 µM in experiment [3]; at least 20 µM in [4]; at least 5 µM in experiment [5]; at least 20 µM in experiment [6]. For the same sequence, the Kd in experiment [7] is at least 20 µM; in experiment [8], at least 20 µM; in experiment [9], at least 20 µM; in experiment [10], at least 20 µM; in experiment [11] it was 0.0276 µM; in [12], at least 20 µM. The equilibrium dissociation constant (Kd) in [13] is at least 20 µM; in experiment [14] it was at least 20 µM; in experiment [15] it was at least 20 µM; in experiment [16], at least 5 µM; in [17], at least 20 µM; in experiment [18], at least 20 µM. Besides, the Kd in experiment [19] is at least 20 µM; in experiment [20], at least 20 µM; in experiment [21], 3 µM; in [22] it was at least 5 µM; in experiment [23], at least 5 µM; in experiment [24] it was at least 5 µM.
